For three molecules, Kd results are on record in article PMC7963221 (2021).

Some targets named below: Frankfurt 1 RBD; Civet 007-2004 RBD; A021 RBD; SHC014 RBD; BM48-31 RBD; LYRa11 RBD; RaTG13 RBD; CS24 RBD; GD-Pangolin RBD; Rs4231 RBD; WIV1 RBD; Pangolin_GX- RBD.
Holding throughout (assay): FACS
Background: In flow cytometry, cells or beads pass a laser one at a time.

Test [1] addresses SARS-CoV-2 RBD (WT) displayed on the surface of yeast (SARS-CoV-2, UniProt P0DTC2).
Test [2] has as its target SARS-CoV RBD displayed on the surface of yeast (SARS-CoV, UniProt P59594).

B1: ADG-3 (antibody, V domains shown)
VH: EVQLVESGGGLIQPGGSLRLSCAASGFPFKGTYMTWVRQAPGKGLEWVSIIYSGGDTYYADSVKGRFTISRDNSKNTLFLQMNSLRVEDTAMYYCARDREMAIITERTYGLDVWGQGTMVTVSS
VL: QSVLTQPPSASGTPGQRVTISCSGGSSNIGSNSVNWYQQLPGTAPKLLIYSNSQRPSGVPDRFSGSKSGTSASLAISGLQSEDEADYYCAAWDDSLNTFRYVFGTGTKVTVL
The term Kd denotes the concentration at which binding is half-saturated. Read a low Kd as higher affinity. On to B1, for which the Kd with Frankfurt 1 RBD is 0.96 nM; with Civet 007-2004 RBD, 0.9 nM; with A021 RBD, 0.91 nM; with SHC014 RBD, 0.93 nM; with BM48-31 RBD, 3.09 nM; with LYRa11 RBD, 0.92 nM. The Kd was found to be 0.88 nM with RaTG13 RBD; 1.05 nM with CS24 RBD; 0.68 nM with GD-Pangolin RBD; 1.07 nM with Rs4231 RBD; 0.72 nM with WIV1 RBD; 0.55 nM in test [1]. Also, in test [2], the equilibrium dissociation constant (Kd) came out at 0.91 nM.

B2: ADG-1 (antibody, V domains shown)
VH: QVQLVESGGGLVQPGGSLRLSCSASGFTFSRFAMHWVRQAPGKGLEYVSAINLNGDSKYYTDSVRGRFTISRDNSKNTLYLQMSSVRPDDTAFYYCVKDGGYYDSSGPGHWGQGTLVTVSS
VL: EIVLTQSPATLSLSPGERATLSCRASENILHYLAWYQQKPGQAPRLVIYDASRRATGIPGRFSGSGAGTDFTLTINSLEPEDFAVYYCQQRANWPQNFGGGTKVEIK
Turning to B2, the Kd came out at 0.97 nM with Frankfurt 1 RBD; 0.78 nM in the test with Civet 007-2004 RBD; 0.95 nM with A021 RBD; 0.79 nM with LYRa11 RBD; 0.97 nM with CS24 RBD; 0.87 nM in the test with GD-Pangolin RBD. Besides, the dissociation constant Kd in the test with WIV1 RBD is 0.68 nM; in [1], 0.73 nM; in [2] it was 1.09 nM.

B3: ADG-2 (antibody, V domains shown)
VH: EVQLVESGGGLVKPGGSLRLSCAASGFTFSSYYMNWVRQAPGKGLEWVSSISEDGYSTYYPDSLKGRFTISRDSAKNSLYLQMNSLRADDTAVYYCARDFSGHTAWAGTGFEYWGQGTLVTVSS
VL: QSVLTQPPSVSGAPGQRITISCTGSSSNIGAGYDVHWYQQLPGTAPKLLIYGSSSRNSGVPDRFSGSKSGTSASLAITGLQAEDEADYYCQSYDSSLSVLYTFGTGTKVTVL
Consider B3, for which the dissociation constant Kd in the test with Pangolin_GX- RBD is 1.12 nM; in the test with Frankfurt 1 RBD it was 0.38 nM; in the test with Civet 007-2004 RBD, 0.35 nM; in the test with A021 RBD it was 0.47 nM; with SHC014 RBD, 0.33 nM; in the test with LYRa11 RBD it was 0.47 nM. Besides, the Kd is 0.45 nM with CS24 RBD; 0.24 nM in the test with GD-Pangolin RBD; 0.4 nM with Rs4231 RBD; 0.42 nM with WIV1 RBD; 0.43 nM in test [1]; 0.39 nM in test [2].
